Source: publication PMC3900260
Like-named read-outs stand apart in the source and are kept apart here.

apurinic/apyrimidinic endonuclease 1 (APE1): K6R/K7R
no change: enzymatic_activity (acetylation at K6) | expression_or_secretion (acetylation at K6) | enzymatic_activity (acetylation at K7) | expression_or_secretion (acetylation at K7)
